Laboratory results taken from publication PMC5648601.

Target: recombinant His-MYC-bHLH-LZ protein
Assay: BLI

B1: recombinant GST-MKK3 protein (enzyme)
chain: MESPASSQPASMPQSKGKSKRKKDLRISCMSKPPAPNPTPPRNLDSRTFITIGDRNFEVEADDLVTISELGRGAYGVVEKVRHAQSGTIMAVKRIRATVNSQEQKRLLMDLDINMRTVDCFYTVTFYGALFREGDVWICMELMDTSLDKFYRKVLDKNMTIPEDILGEIAVSIVRALEHLHSKLSVIHRDVKPSNVLINKEGHVKMCDFGISGYLVDSVAKTMDAGCKPYMAPERINPELNQKGYNVKSDVWSLGITMIEMAILRFPYESWGTPFQQLKQVVEEPSPQLPADRFSPEFVDFTAQCLRKNPAERMSYLELMEHPFFTLHKTKKTDIAAFVKEILGEDS
Kd: 225 nM
